Reference: patent US20140087995A1 (published 2014)
Numbered stars: 1 amine (or outer) side, 2 acyl side, 3 side chain; on linkers, the order of the positions; unused ones are H or OH. Bridge positions count the residues as written; N and C are the ends. Side chains are listed from the residue outwards. Ends that are not written are not given here. * marks the point of attachment. C20 diacid = O=C(O)CCCCCCCCCCCCCCCCCCC(=O)*; C18 diacid = O=C(O)CCCCCCCCCCCCCCCCC(=O)*; γGlu = O=C(O)[C@H](CCC(=O)[*:2])N[*:1]

T1: rat calcitonin receptor (rat, UniProt P32214 25-516)
T1 construct: whole, on cells; Membranes of transiently transfected BHK tk'ts 13 cells; also called rCTR; rat calcitonin (a) receptor
T1 sequence (looked up): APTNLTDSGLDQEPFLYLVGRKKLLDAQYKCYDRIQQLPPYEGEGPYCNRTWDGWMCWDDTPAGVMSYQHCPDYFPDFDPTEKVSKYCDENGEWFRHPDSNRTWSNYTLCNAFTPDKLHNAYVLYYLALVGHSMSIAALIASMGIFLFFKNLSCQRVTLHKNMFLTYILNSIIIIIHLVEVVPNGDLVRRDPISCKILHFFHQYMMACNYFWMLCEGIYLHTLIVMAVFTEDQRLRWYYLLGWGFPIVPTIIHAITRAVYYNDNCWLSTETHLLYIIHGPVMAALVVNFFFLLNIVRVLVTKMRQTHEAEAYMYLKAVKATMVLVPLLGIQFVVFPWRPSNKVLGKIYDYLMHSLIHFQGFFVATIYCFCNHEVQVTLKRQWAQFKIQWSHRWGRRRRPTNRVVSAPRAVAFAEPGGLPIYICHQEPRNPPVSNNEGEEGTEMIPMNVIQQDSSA

T2: human calcitonin receptor (human, UniProt P30988 25-474)
T2 construct: whole, on cells; Membranes of stably transfected cells; also called hCTR; hCT
T2 sequence (looked up): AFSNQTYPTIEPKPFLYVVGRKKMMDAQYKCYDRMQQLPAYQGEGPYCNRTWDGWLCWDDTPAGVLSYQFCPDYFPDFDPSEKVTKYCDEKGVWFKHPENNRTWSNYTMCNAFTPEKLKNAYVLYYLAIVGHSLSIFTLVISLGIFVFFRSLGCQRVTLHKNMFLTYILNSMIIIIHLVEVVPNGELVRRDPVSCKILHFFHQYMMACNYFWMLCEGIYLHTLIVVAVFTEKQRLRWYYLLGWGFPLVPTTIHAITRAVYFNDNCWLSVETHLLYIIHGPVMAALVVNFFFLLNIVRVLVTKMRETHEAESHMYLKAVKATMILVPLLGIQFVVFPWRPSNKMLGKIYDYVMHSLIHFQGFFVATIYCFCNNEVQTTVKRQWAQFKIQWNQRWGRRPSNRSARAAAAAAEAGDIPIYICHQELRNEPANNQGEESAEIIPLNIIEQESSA

T3: rat amylin receptor (rat calcitonin receptor + rat RAMP 3) (rat, UniProt P32214 25-516; Q9JJ73 23-147)
T3 construct: whole, on cells; Membranes of transiently transfected BHK tk'ts 13 cells; also called rAmylin-R; rat amylin 3(a) receptor
T3 sequence (looked up) 1: T1 sequence (looked up)
T3 sequence (looked up) 2: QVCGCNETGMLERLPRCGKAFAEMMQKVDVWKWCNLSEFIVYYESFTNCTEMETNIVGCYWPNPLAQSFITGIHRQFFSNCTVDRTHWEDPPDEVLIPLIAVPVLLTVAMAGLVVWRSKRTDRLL

B1: N^ε1-[(4S)-4-carboxy-4-(17-carboxyheptadecanoylamino)butanoyl]-[Arg17,Pro21,Pro27,His34]-h-amylin (peptide)
peptide: K([γGlu-C18 diacid])CNTATCATQRLANFLRHSSPNFGAIPSSTNVGHNTY-NH2
modifications: disulfide 2-7; N-terminus assumed
SMILES: CC[C@H](C)[C@H](NC(=O)[C@H](C)NC(=O)CNC(=O)[C@H](Cc1ccccc1)NC(=O)[C@H](CC(N)=O)NC(=O)[C@@H]1CCCN1C(=O)[C@H](CO)NC(=O)[C@H](CO)NC(=O)[C@H](Cc1c[nH]cn1)NC(=O)[C@H](CCCNC(=N)N)NC(=O)[C@H](CC(C)C)NC(=O)[C@H](Cc1ccccc1)NC(=O)[C@H](CC(N)=O)NC(=O)[C@H](C)NC(=O)[C@H](CC(C)C)NC(=O)[C@H](CCCNC(=N)N)NC(=O)[C@H](CCC(N)=O)NC(=O)[C@@H](NC(=O)[C@H](C)NC(=O)[C@@H]1CSSC[C@H](NC(=O)[C@@H](N)CCCCNC(=O)CC[C@H](NC(=O)CCCCCCCCCCCCCCCCC(=O)O)C(=O)O)C(=O)N[C@@H](CC(N)=O)C(=O)N[C@@H]([C@@H](C)O)C(=O)N[C@@H](C)C(=O)N[C@@H]([C@@H](C)O)C(=O)N1)[C@@H](C)O)C(=O)N1CCC[C@H]1C(=O)N[C@@H](CO)C(=O)N[C@@H](CO)C(=O)N[C@H](C(=O)N[C@@H](CC(N)=O)C(=O)N[C@H](C(=O)NCC(=O)N[C@@H](Cc1c[nH]cn1)C(=O)N[C@@H](CC(N)=O)C(=O)N[C@H](C(=O)N[C@@H](Cc1ccc(O)cc1)C(N)=O)[C@@H](C)O)C(C)C)[C@@H](C)O
notes: Synthetic acylated analogue of human amylin
B2: N^ε1-[(4S)-4-carboxy-4-(19-carboxynonadecanoylamino)butanoyl]-[Ala14,Arg17,Pro21,Pro27,Pro34]-h-amylin (peptide)
peptide: K([γGlu-C20 diacid])CNTATCATQRLAAFLRHSSPNFGAIPSSTNVGPNTY-NH2
modifications: disulfide 2-7; N-terminus assumed
SMILES: CC[C@H](C)[C@H](NC(=O)[C@H](C)NC(=O)CNC(=O)[C@H](Cc1ccccc1)NC(=O)[C@H](CC(N)=O)NC(=O)[C@@H]1CCCN1C(=O)[C@H](CO)NC(=O)[C@H](CO)NC(=O)[C@H](Cc1c[nH]cn1)NC(=O)[C@H](CCCNC(=N)N)NC(=O)[C@H](CC(C)C)NC(=O)[C@H](Cc1ccccc1)NC(=O)[C@H](C)NC(=O)[C@H](C)NC(=O)[C@H](CC(C)C)NC(=O)[C@H](CCCNC(=N)N)NC(=O)[C@H](CCC(N)=O)NC(=O)[C@@H](NC(=O)[C@H](C)NC(=O)[C@@H]1CSSC[C@H](NC(=O)[C@@H](N)CCCCNC(=O)CC[C@H](NC(=O)CCCCCCCCCCCCCCCCCCC(=O)O)C(=O)O)C(=O)N[C@@H](CC(N)=O)C(=O)N[C@@H]([C@@H](C)O)C(=O)N[C@@H](C)C(=O)N[C@@H]([C@@H](C)O)C(=O)N1)[C@@H](C)O)C(=O)N1CCC[C@H]1C(=O)N[C@@H](CO)C(=O)N[C@@H](CO)C(=O)N[C@H](C(=O)N[C@@H](CC(N)=O)C(=O)N[C@H](C(=O)NCC(=O)N1CCC[C@H]1C(=O)N[C@@H](CC(N)=O)C(=O)N[C@H](C(=O)N[C@@H](Cc1ccc(O)cc1)C(N)=O)[C@@H](C)O)C(C)C)[C@@H](C)O
notes: Synthetic acylated analogue of human amylin; also called compound 94
B3: N^ε1-[(4S)-4-carboxy-4-(19-carboxynonadecanoylamino)butanoyl]-[Ala14,Arg17,Pro21,Pro27,His34]-h-amylin (peptide)
peptide: K([γGlu-C20 diacid])CNTATCATQRLAAFLRHSSPNFGAIPSSTNVGHNTY-NH2
modifications: disulfide 2-7; N-terminus assumed
SMILES: CC[C@H](C)[C@H](NC(=O)[C@H](C)NC(=O)CNC(=O)[C@H](Cc1ccccc1)NC(=O)[C@H](CC(N)=O)NC(=O)[C@@H]1CCCN1C(=O)[C@H](CO)NC(=O)[C@H](CO)NC(=O)[C@H](Cc1c[nH]cn1)NC(=O)[C@H](CCCNC(=N)N)NC(=O)[C@H](CC(C)C)NC(=O)[C@H](Cc1ccccc1)NC(=O)[C@H](C)NC(=O)[C@H](C)NC(=O)[C@H](CC(C)C)NC(=O)[C@H](CCCNC(=N)N)NC(=O)[C@H](CCC(N)=O)NC(=O)[C@@H](NC(=O)[C@H](C)NC(=O)[C@@H]1CSSC[C@H](NC(=O)[C@@H](N)CCCCNC(=O)CC[C@H](NC(=O)CCCCCCCCCCCCCCCCCCC(=O)O)C(=O)O)C(=O)N[C@@H](CC(N)=O)C(=O)N[C@@H]([C@@H](C)O)C(=O)N[C@@H](C)C(=O)N[C@@H]([C@@H](C)O)C(=O)N1)[C@@H](C)O)C(=O)N1CCC[C@H]1C(=O)N[C@@H](CO)C(=O)N[C@@H](CO)C(=O)N[C@H](C(=O)N[C@@H](CC(N)=O)C(=O)N[C@H](C(=O)NCC(=O)N[C@@H](Cc1c[nH]cn1)C(=O)N[C@@H](CC(N)=O)C(=O)N[C@H](C(=O)N[C@@H](Cc1ccc(O)cc1)C(N)=O)[C@@H](C)O)C(C)C)[C@@H](C)O
notes: Synthetic acylated analogue of human amylin; also called compound 93
B4: N^ε1-[(4S)-4-carboxy-4-(19-carboxynonadecanoylamino)butanoyl]-[Asp14,Arg17,Pro21,Pro27,Pro34,Arg35]-h-amylin (peptide)
peptide: K([γGlu-C20 diacid])CNTATCATQRLADFLRHSSPNFGAIPSSTNVGPRTY-NH2
modifications: disulfide 2-7; N-terminus assumed
SMILES: CC[C@H](C)[C@H](NC(=O)[C@H](C)NC(=O)CNC(=O)[C@H](Cc1ccccc1)NC(=O)[C@H](CC(N)=O)NC(=O)[C@@H]1CCCN1C(=O)[C@H](CO)NC(=O)[C@H](CO)NC(=O)[C@H](Cc1c[nH]cn1)NC(=O)[C@H](CCCNC(=N)N)NC(=O)[C@H](CC(C)C)NC(=O)[C@H](Cc1ccccc1)NC(=O)[C@H](CC(=O)O)NC(=O)[C@H](C)NC(=O)[C@H](CC(C)C)NC(=O)[C@H](CCCNC(=N)N)NC(=O)[C@H](CCC(N)=O)NC(=O)[C@@H](NC(=O)[C@H](C)NC(=O)[C@@H]1CSSC[C@H](NC(=O)[C@@H](N)CCCCNC(=O)CC[C@H](NC(=O)CCCCCCCCCCCCCCCCCCC(=O)O)C(=O)O)C(=O)N[C@@H](CC(N)=O)C(=O)N[C@@H]([C@@H](C)O)C(=O)N[C@@H](C)C(=O)N[C@@H]([C@@H](C)O)C(=O)N1)[C@@H](C)O)C(=O)N1CCC[C@H]1C(=O)N[C@@H](CO)C(=O)N[C@@H](CO)C(=O)N[C@H](C(=O)N[C@@H](CC(N)=O)C(=O)N[C@H](C(=O)NCC(=O)N1CCC[C@H]1C(=O)N[C@@H](CCCNC(=N)N)C(=O)N[C@H](C(=O)N[C@@H](Cc1ccc(O)cc1)C(N)=O)[C@@H](C)O)C(C)C)[C@@H](C)O
notes: as for B1

Each binder was assayed against T1, rat calcitonin receptor (assay: ratio of IC50 on rat calcitonin receptor to IC50 on rat amylin receptor (reference m40)).

Row | Ratio rCT/rAmylin binding | Binder
1 | 40.3 | B1
2 | 280 | B2
3 | 83.2 | B3
4 | 116 | B4

The binders below were run against T2, human calcitonin receptor (assay: ratio of IC50 on human calcitonin receptor to IC50 on human amylin receptor (reference m42), SPA competition).
Protocol: The resulting pellet was resuspended, homogenized and centrifuged (20.000 rpm, 15 min) in a buffer containing 20 mM Na-HEPES and 0.1 mM EDTA (pH 7.4, buffer 2). The resulting pellet was resuspended in buffer 2 and protein concentration was measured (BCA protein Assay, Pierce). The homogenate was kept cold during the whole procedure. The membranes were kept at −80° C. until use. The assay was performed in a 384 well Optiplate (PerkinElmer) in a total volume of 40 ul. Membranes were mixed with SPA beads. Final concentration of membranes 35 ng/μL final and SPA beads was 0.05 mg/well. Test-compounds were dissolved in DMSO and further diluted in assay buffer (50 mM Hepes, pH 7.4, 1 mM CaCl2, 5 mM MgCl₂, 0.1% OA and 0.02% Tween20). […] The final mixture was incubated with shaking at 400 rpm for 120 min at 25° C. prior to centrifugation (1500 rpm, 10 min). Samples were analyzed on TopCounter™ (Packard). The IC₅₀ was calculated using (one site binding competition analysis) GraphPad Prism5 as a measure of receptor affinity.
Membranes were prepared in the following way; the cells were rinsed with PBS and incubated with Versene for approximately 5 min before harvesting. The cells were flushed with PBS and the cell-suspension was centrifuged for 5 min at 1000 rpm. Cells were homogenized (Ultrathurrax) in a buffer containing 20 mM Na-HEPES and 10 mM EDTA (pH 7.4) and centrifuged at 20.000 rpm for 15 min. The resulting pellet was resuspended, homogenized and centrifuged (20.000 rpm, 15 min) in a buffer containing 20 mM Na-HEPES and 0.1 mM EDTA (pH 7.4, buffer 2). The resulting pellet was resuspended in buffer 2 and protein concentration was measured (BCA protein Assay, Pierce). The homogenate was kept cold during the whole procedure. The membranes were kept at −80° C. until use. Assay was performed in a 384 well Optiplate (PerkinElmer) in a total volume of 40 ul. Membranes were mixed with SPA beads.

Row | Ratio hCT/hAmylin binding | Binder
5 | 59.4 | B1
6 | 46.3 | B2
7 | 101 | B3
8 | 151 | B4

Each binder was assayed against T1, rat calcitonin receptor (assay: SPA competition with 125I-calcitonin on membranes of BHK tk'ts 13 cells with rat calcitonin receptor (Assay VIII)).

Row | IC50 [nM] | Binder
9 | 47 | B1
10 | 111 | B2
11 | 131 | B3
12 | 58.5 | B4

What follows are binders tested against T3, rat amylin receptor (rat calcitonin …) (assay: SPA competition with 125I-rat amylin on membranes of BHK tk'ts 13 cells with rat calcitonin receptor + rat RAMP3 (Assay VI)).

Row | IC50 [nM] | Binder
13 | 1.17 | B1
14 | 0.397 | B2
15 | 1.58 | B3
16 | 0.504 | B4
